This test addresses IgG1Δhinge fragment of IgG1-7D8-K409R (human). The experiment in a line: native mass spectrometry; CH2-CH3 fragment mixed 24 h with the IgG1Δhinge fragment of IgG1-7D8-K409R (heterodimer).

B1: CH2-CH3 fragment of human IgG1 with F405L, P01857 224-330 (protein, UniProt P01857-1 224-330, looked up, name in EU numbering, not shown: small tags and cut ends)
chain: GQPREPQVYTLPPSRDELTKNQVSLTCLVKGFYPSDIAVEWESNGQPENNYKTTPPVLDSDGSFLLYSKLTVDKSRWQQGNVFSCSVMHEALHNHYTQKSLSLSPGK
As usually defined, the Kd is a measure of binding affinity in units of concentration. Read a low Kd as a tighter complex. In turn, B1 came in with a Kd of 12 nM.

B2: CH2-CH3 fragment of human IgG1 with T350I-K370T-F405L, P01857 224-330 (protein, UniProt P01857-1 224-330, looked up, name in EU numbering, not shown: small tags and cut ends)
chain: GQPREPQVYILPPSRDELTKNQVSLTCLVTGFYPSDIAVEWESNGQPENNYKTTPPVLDSDGSFLLYSKLTVDKSRWQQGNVFSCSVMHEALHNHYTQKSLSLSPGK
Regarding B2, the Kd was 17 nM.

The values are drawn from US20170233497A1.
